Measured values taken from patent US7919091B2, “Lipolysis stimulated receptor (LSR) specific antibodies” (Serono Genetics Institute S.A., priority 1997, dated 2011).

Target: T1, LSR (Rattus norvegicus, UniProt Q9WU74)
T1 construct: from tissue; host or cells: rat liver plasma membranes / solubilized rat liver membrane proteins
T1 sequence (Q9WU74 36-593): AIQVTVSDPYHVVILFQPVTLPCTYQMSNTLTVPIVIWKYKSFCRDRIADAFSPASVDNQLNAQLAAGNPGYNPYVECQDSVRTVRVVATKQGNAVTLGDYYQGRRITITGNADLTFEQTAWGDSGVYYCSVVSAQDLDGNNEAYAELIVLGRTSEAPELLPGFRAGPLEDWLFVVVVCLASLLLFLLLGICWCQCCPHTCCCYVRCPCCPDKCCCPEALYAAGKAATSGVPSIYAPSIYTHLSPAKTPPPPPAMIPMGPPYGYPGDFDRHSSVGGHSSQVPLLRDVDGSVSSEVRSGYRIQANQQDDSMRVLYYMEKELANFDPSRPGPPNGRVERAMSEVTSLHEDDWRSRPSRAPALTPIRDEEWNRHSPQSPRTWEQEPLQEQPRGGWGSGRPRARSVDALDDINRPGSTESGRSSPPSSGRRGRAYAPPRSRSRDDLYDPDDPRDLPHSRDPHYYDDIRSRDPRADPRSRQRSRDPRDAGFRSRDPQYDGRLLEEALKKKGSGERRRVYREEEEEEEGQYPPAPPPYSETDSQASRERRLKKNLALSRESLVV
T1 sequence (Q9WU74 36-525 isoform Q9WU74-3 limits assumed): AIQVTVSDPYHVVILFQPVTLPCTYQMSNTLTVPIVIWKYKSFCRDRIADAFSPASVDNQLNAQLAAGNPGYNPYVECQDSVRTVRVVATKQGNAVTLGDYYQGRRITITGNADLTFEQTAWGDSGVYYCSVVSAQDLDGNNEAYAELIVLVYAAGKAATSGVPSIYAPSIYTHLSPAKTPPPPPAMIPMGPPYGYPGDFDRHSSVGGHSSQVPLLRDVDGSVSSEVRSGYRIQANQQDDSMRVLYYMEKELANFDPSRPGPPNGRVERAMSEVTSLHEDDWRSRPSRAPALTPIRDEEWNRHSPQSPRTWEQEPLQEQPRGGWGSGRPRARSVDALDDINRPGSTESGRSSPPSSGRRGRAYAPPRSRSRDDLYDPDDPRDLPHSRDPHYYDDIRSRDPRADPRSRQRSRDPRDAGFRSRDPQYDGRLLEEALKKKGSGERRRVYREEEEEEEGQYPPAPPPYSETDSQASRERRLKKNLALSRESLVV
Test: LSR activity of binding, internalization and degradation of lipoproteins in the presence of leptin, rat hepatocytes
Assay type: cell-based
Conditions: increasing concentrations of leptin, difference with/without 500 μM oleate
Protocol: Rat hepatocytes in primary culture are incubated at 37° C. for 30 min with an increasing concentration of leptin, and then incubated at 37° C. for 4 hours with either 50 μg/ml of ^125I-LDL (specific activity: 209 cpm/ng) or 50 μg/ml of ^125I-VLDL (specific activity: 157 cpm/ng) in the absence or in the presence of 500 μM oleate. The cells are then washed and the quantities of ^125I-lipoproteins bound, incorporated and degraded are measured as described above in Example 1 (Bihain and Yen, 1992). The results shown in FIG. 23 represent the differences obtained between the cells incubated with or without oleate. Each point represents the mean of 3 measurements. The standard deviation for each point is included in the symbol.

B1: leptin: mouse recombinant leptin with hexahistidine end, expressed in E. coli (protein, UniProt P41160 22-167, looked up)
Leptin: VPIQKVQDDTKTLIKTIVTRINDISHTQSVSAKQRVTGLDFIPGLHPILSLSKMDQTLAVYQQVLTSLPSQNVLQIANDLENLRDLLHLLAFSKSCSLPQTSGLQKPESLDGVLEASLYSTEVVALSRLQGSLQDILQQLDVSPEC
modifications: hexahistidine tag
notes: mouse recombinant leptin with hexahistidine end, expressed in E. coli
binding, internalization and degradation of VLDLs and LDLs: increases
